{
  "source": "patent US20220073613A1",
  "about": "“ACTIVATABLE MASKED ANTI-CTLA4 BINDING PROTEINS” (Xilio Development, Inc., priority 2018, published 2022)",
  "molecules": {"B1": {"name": "activatable masked anti-CTLA4 antibody: 9D9 masked with CNLIVEGHC via MMP2/7/9 cleavable linker; light chain SEQ ID NO:238, heavy chain SEQ ID NO:319 (antibody)", "heavy": "EAKLQESGPVLVKPGASVKMSCKASGYTFTDYYMNWVKQSHGKSLEWIGVINPYNGDTSYNQKFKGKATLTVDKSSSTAYMELNSLTSEDSAVYYCARYYGSWFAYWGQGTLITVSSAKTTAPSVYPLAPVCGDTTGSSVTLGCLVKGYFPEPVTLTWNSGSLSSGVHTFPAVLQSDLYTLSSSVTVTSSTWPSQSITCNVAHPASSTKVDKKIEPRGPTIKPCPPCKCPAPNLLGGPSVFIFPPKIKDVLMISLSPIVTCVVVDVSEDDPDVQISWFVNNVEVHTAQTQTHREDYNSTLRVVSALPIQHQDWMSGKEFKCKVNNKDLPAPIERTISKPKGSVRAPQVYVLPPPEEEMTKKQVTLTCMVTDFMPEDIYVEWTNNGKTELNYKNTEPVLDSDGSYFMYSKLRVEKKNWVERNSYSCSVVHEGLHNHHTTKSFSRTPGK", "light": "ACNLIVEGHCGGSVPLSLYSGGGDIVMTQTTLSLPVSLGDQASISCRSSQSIVHSNGNTYLEWYLQKPGQSPKLLIYKVSNRFSGVPDRFSGSGSGTDFTLKISRVEAEDLGVYYCFQGSHVPYTFGGGTKLEIKRADAAPTVSIFPPSSEQLTSGGASVVCFLNNFYPKDINVKWKIDGSERQNGVLNSWTDQDSKDSTYSMSSTLTLTKDEYERHNSYTCEATHKTSTSPIVKSFNRNEC"}},
  "key": {"murine CTLA4-Fc": {"biological_target": "T1, murine CTLA4-Fc (Mus musculus, UniProt P09793)", "T1 construct": "purchased R&D Systems", "T1 sequence (P09793 with tags, fused parts or gaps limits assumed)": "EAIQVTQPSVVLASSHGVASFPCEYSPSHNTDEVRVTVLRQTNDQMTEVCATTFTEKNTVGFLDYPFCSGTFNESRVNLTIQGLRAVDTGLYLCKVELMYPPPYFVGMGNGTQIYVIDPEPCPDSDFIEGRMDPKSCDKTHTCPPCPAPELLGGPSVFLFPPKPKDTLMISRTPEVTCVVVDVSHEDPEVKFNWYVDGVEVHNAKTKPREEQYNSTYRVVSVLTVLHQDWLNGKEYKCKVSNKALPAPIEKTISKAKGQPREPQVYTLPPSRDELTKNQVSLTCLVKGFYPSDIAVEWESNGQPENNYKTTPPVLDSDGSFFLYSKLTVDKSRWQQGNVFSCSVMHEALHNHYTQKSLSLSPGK", "experiment": "ELISA binding to murine CTLA4-Fc, with MMP2 cleavage (Example 3A)", "conditions": "MMP2, 37° C. overnight", "procedure": "ELISA plates were coated overnight in TBS with murine CTLA4-Fc (R&D Systems) and then washed with TBS with 0.05% Tween 20, and blocked with 1% BSA in PBS followed by washing with TBS with Tween 20. Dilutions of parental anti-CTLA4 antibodies and masked anti-CTLA4 antibodies in PBS were allowed to bind to CTLA4 for 60 minutes before washing with TBS Tween 20. Binding was detected with anti-muKappa-HRP (Abcam) and Super Signal Pico Chemiluminescent Substrate. Masked ratio was determined from the EC50 precleavage masked anti-CTLA4 antibody to the EC50 for parental anti-CTLA4 antibody.\nParental anti-CTLA4 antibodies and masked anti-CTLA4 antibodies were incubated with 6 nM of MMP2 (R&D Systems) in 150 mM NaCl, 50 mM Tris, pH 7.5, 10 mM CaCl2, 0.02% NP-40) at 37° C. overnight. Antibody dilutions were tested for binding to murine CTLA4-Fc by the ELISA described above and by reduced-SDS-PAGE analysis, using “Any Kd Stain-Free pre-cast polyacrylamide gels” (Bio-Rad)."}, "[1]": {"biological_target": "murine CTLA4 (muCTLA4hsIgG protein)", "sequence (P09793 36-161 limits assumed)": "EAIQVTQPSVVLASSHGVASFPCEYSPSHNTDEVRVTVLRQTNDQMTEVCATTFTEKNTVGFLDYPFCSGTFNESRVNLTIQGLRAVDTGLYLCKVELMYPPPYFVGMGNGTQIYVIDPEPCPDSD", "experiment": "Low density antigen binding ELISA, with MMP2 activation (Example 3B)", "procedure": "All ELISA were performed in a manner substantially similar to the description below or generally consistent with methods known in the art. Polysterene 96-well microplates (Thermo Fisher Scientific) were coated with 3 ng muCTLA4hsIgG protein (Abcam) per well and stored overnight at 4° C. Plates were washed with 0.1% Tween in TBS (TBS-T), blocked with 1% BSA (Fisher) in PBS for 2 hours at 4° C., and washed with TBS-T. Serial dilutions of tested antibody in 0.05% Tween+1% BSA in PBS (PBS-TB) were added to the plate and incubated at room temperature for 1 hour. After washing with TBS-T, HRP-conjugated goat anti-mouse Kappa light chain antibody (Abcam) diluted 1:4000 in PBS-TB was applied to the wells and incubated at room temperature for 1 hour. Plates were washed with TBS-T, chemiluminescent HRP substrate was applied to plate, and luminescence was recorded using a spectrophotometer (Synergy HT, BioTek). Data was analyzed with GraphPad Prism, version 7.02.\nParental anti-CTLA4 antibodies, masked anti-CTLA4 antibodies, and non-cleavable masked anti-CTLA4 antibodies were each diluted to 1 μM solution in cleavage buffer (150 mM NaCl; 50 mM Tris, pH 7.5; 10 mM CaCl2; 0.02% NP-40). Recombinant MMP2 (R&D Systems) activated with 1 mM p-aminophenylmercuric acetate […] for 1 hour at 37° C. was added to each antibody solution to a final concentration of 4 nM and incubated overnight at 37° C. […]"}, "MC38 tumors [2]": {"test_system": "MC38 tumors", "experiment": "MC38 tumor eradication and T cell population analysis (Example 4A)", "format": "in vivo, C57Bl/6 mice", "procedure": "C57Bl/6 mice with 50-100 mm^3 MC38 tumors were administered intraperitoneally a single dose of 200 μg of IgG2a control (BioXcel), parental anti-CTLA4 antibody reactive to murine CTLA4 (9D9.IgG2a, light chain comprising SEQ ID NO:237, heavy chain comprising SEQ ID NO:319), activatable masked anti-CTLA4 antibody reactive to murine CTLA4 (light chain comprising SEQ ID NO:238, heavy chain comprising SEQ ID NO:319), masked anti-CTLA4 antibody 1005 reactive to murine CTLA4 (light chain comprising SEQ ID NO:240, heavy chain comprising SEQ ID NO:319), or anti-CTLA4 antibody 1 cross-reactive with human CTLA4 and murine CTLA4 (light chain comprising SEQ ID NO:327, heavy chain comprising SEQ ID NO:366). Body weight and tumor size were measured biweekly.\nC57Bl/6 mice with 50-100 mm^3 MC38 tumors were dosed with three […] doses on day 1, 4, and 8 with IgG2a control (BioXcel), parental anti-CTLA4 antibody (9D9.IgG2a, light chain comprising SEQ ID NO:237, heavy chain comprising SEQ ID NO:319 masked anti-CTLA4 antibody 2 (light chain comprising SEQ ID NO:238, heavy chain comprising SEQ ID NO:319), masked anti-CTLA4 antibody 1005 (light chain comprising SEQ ID NO:240, heavy chain comprising SEQ ID NO:319), or anti-CTLA4 antibody 1 cross-reactive with human CTLA4 and murine CTLA4 (light chain comprising SEQ ID NO:327, heavy chain comprising SEQ ID NO:366). On day 9, mice were sacrificed and tumors were dissociated using gentleMACS™ protocol “Tumor Dissociation Kit” (Milteni) and filtered through a 70 micron cell strainer and rinsed twice in PBS/2.5% FBS buffer to remove enzymatic buffer. […] and spleen cells were dissociated by gently grinding the tissue across a mesh. Red blood cells were lysed with ACK buffer (Thermo Fisher) prior to staining of the cells. Staining of cells was with fluorescently labeled anti-CD45 (BioLegend), anti-CD3 (BioLegend), anti-CD4 (BioLegend), anti-CD8 (BD Biosciences), anti-CD25 (BioLegend). Prior to staining with anti-FoxP3 (eBioscience), and anti-Ki67 (eBioscience) the cells were permeabilized. Stained cells were analyzed by fluorescent activate cell sorting (FACS) for the percentages of CD4+, CD8+, and CD25 Foxp3+(Tregs) cells of the live (Live/Dead Aqua purchased from Life) CD45 positive cells, as well as the percentage of these three cell populations that were Ki67 positive, a marker of cell proliferation."}, "MC38 tumors [3]": {"test_system": "MC38 tumors", "experiment": "MC38 mouse colorectal carcinoma model, tumor and Treg analysis (Example 4B)", "format": "in vivo, C57BL/6 mice", "procedure": "The effects of activatable masked anti-CTLA4 antibodies on tumor growth as well as immune parameters in the tumor and in the periphery were investigated using a MC38 mouse colorectal carcinoma model, previously shown to respond to treatment with the 9D9 antibody. See Peggs K. S. et al., J Exp Med., 206:1717-1725, (2009) and Selby M. J., et al., Cancer Immunol Res., 1:32-42, (2013).\nTo assess anti-tumor efficacy, antibodies formulated in PBS were administered intraperitoneally (i.p.) on day 1 post-randomization at […] per dose in a volume of ≤250 μL. Tumor volumes were determined twice weekly. All mice were monitored individually and sacrificed upon either tumor volume reaching 1500 mm3 or 45 days post-randomization. To assess biological function of antibodies on regulatory T cells (Tregs) by FACS analysis as described below, tumor-bearing mice were administered antibody intraperitoneally on days 1, 4, and 8 post-randomization at […] per dose in a volume of ≤250 μL. The control antibody was muIgG2a (BioXcell). All mice were sacrificed on day 9; tumor and spleen were harvested for FACS analysis.\nMouse tumor samples were dissociated according to standard protocol by Tumor Dissociation Kit (gentleMACS) and passed through a 70 μm cell strainer. Spleen samples were dissociated with the back of a syringe in a 70 μm cell strainer. Red blood cells were lysed with ACK buffer (Lonza). Final cell suspensions were washed and resuspended in Staining Buffer (PBS pH 7.4, 2.5% FBS, 0.09% NaN3) at 2×10^7 cells/mL. Cells were treated with Mu Trustain fcX (BioLegend) to block Fc receptors prior to being stained with antibodies against CD45 (BioLegend), CD3 (BioLegend), CD4 (BioLegend), CD8 (BD Biosciences), CD25 (BioLegend), and Live/Dead Aqua (ThermoFisher). For intracellular staining, cells were fixed, permeabilized, and stained with antibodies against FoxP3 (eBioscience) and Ki-67 (eBioscience). Single color stains and FMOs were run for gating purposes."}, "[4]": {"conditions": "multi-dose, compared to parental antibody (9D9.IgG2a)"}},
  "data": [
    {"molecule": "B1", "values": [
      {"measurement": "binding to murine CTLA4 after protease activation", "setting": "murine CTLA4-Fc", "result": "fully restored binding"},
      {"measurement": "EC50", "setting": "[1]; treated with recombinant MMP2", "result": "0.29 ± 0.03", "unit": "nM"},
      {"measurement": "fold lower binding to murine CTLA4 as compared to parental anti-CTLA4 antibody", "setting": "[1]; without protease, listed as Masked 9D9", "result": "approximately 156 fold"},
      {"measurement": "proliferation of CD4+ cells in the periphery (spleen), % Ki67+", "setting": "MC38 tumors [2]; [4]", "result": "reduced proliferation"},
      {"measurement": "proliferation of CD8+ T cells in the periphery (spleen), % Ki67+", "setting": "MC38 tumors [2]; [4]", "result": "reduced proliferation"},
      {"measurement": "tumor volume", "setting": "MC38 tumors [2]; single dose of 200 μg intraperitoneally", "result": "equivalent efficacy in reducing tumor volume"},
      {"measurement": "regulatory T lymphocytes (Tregs) population in the tumor", "setting": "MC38 tumors [2]; three doses on day 1, 4, and 8, day 9", "result": "preferentially depleted"},
      {"measurement": "proliferating (Ki67+ FOXP3+) Tregs in the spleens", "setting": "MC38 tumors [3]; doses on days 1, 4, and 8, 24 hours after last dose", "result": "marginal increases"},
      {"measurement": "intratumoral Treg abundance", "setting": "MC38 tumors [3]; doses on days 1, 4, and 8, 24 hours after last dose, flow cytometry", "result": "as effective in reducing Tregs as parental anti-CTLA4 antibody"},
      {"measurement": "growth of subcutaneously implanted MC38 tumors", "setting": "MC38 tumors [3]; i.p. on day 1 post-randomization", "result": "induced tumor regression"}
    ]}
  ]
}
